Laboratory results from patent US12269897.

How the values were obtained:
[1] = biological target: hPCSK9(R215E), mmh-tagged (human, UniProt Q8NBP7 31-692); assay: SPR, mAb captured, 25C
[2] = biological target: T1, Chimeric protein #3 (mPro-mCat-hC-term-mmh) (mouse; human); assay: ELISA, mAb coated, 1.2 nM protein
T1 chain: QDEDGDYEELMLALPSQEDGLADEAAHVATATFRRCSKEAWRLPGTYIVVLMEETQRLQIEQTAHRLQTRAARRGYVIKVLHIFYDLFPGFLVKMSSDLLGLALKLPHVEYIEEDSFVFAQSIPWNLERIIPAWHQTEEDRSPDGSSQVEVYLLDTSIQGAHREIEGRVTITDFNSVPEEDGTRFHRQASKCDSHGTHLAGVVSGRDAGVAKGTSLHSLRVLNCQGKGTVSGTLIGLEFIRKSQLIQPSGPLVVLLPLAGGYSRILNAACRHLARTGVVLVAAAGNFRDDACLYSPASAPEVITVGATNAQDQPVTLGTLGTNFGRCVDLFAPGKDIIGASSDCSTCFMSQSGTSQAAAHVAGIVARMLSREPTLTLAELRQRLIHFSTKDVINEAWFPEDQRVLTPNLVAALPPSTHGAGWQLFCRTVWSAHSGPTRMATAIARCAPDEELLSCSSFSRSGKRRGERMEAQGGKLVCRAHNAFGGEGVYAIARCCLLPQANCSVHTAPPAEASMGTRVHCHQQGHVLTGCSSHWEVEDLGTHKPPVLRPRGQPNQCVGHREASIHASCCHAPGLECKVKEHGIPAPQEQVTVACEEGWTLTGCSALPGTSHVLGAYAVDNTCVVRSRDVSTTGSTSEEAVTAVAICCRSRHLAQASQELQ
Text: After 1 hr binding at RT, the plate was washed and bound test protein detected using HRP-conjugated anti-myc polyclonal antibody (++=OD>1.0; +=OD 0.4-1.0; −=OD<0.4).

B1: H1M300N, fully human version (antibody, V domains shown)
VH: EMQLVESGGGLVQPGGSLRLSCAASGFTFSSHWMKWVRQAPGKGLEWVANINQDGSEKYYVDSVKGRFTISRDNAKNSLFLQMNSLRAEDTAVYYCARDIVLMVYDMDYYYYGMDVWGQGTTVTVSS
VL: not shown
notes: Fully human mAb made in CHO cells
For B1, the T1/2 [1] was 1.28 h.

B2: H1M300 (antibody, V domains shown)
VH: EMQLVESGGGLVQPGGSLRLSCAASGFTFSSHWMKWVRQAPGKGLEWVANINQDGSEKYYVDSVKGRFTISRDNAKNSLFLQMNSLRAEDTAVYYCARDIVLMVYDMDYYYYGMDVWGQGTTVTVSS
VL: not shown
notes: Hybridoma-derived chimeric antibody (human variable, mouse constant)
Work on B2 yielded an OD [2] of less than 0.4 od.
